Test in all cases: cell-based or functional assay
In assay [1] the target is MCP-1RB (monocyte chemoattractant protein-1 receptor B) (human) (UniProt P41597).
Assay [2] deals with MIP-1α/RANTES receptor (Homo sapiens (Human)) (UniProt P32246).
Another assay addresses T1, MIP-1α/RANTES receptor (Homo sapiens (Human), UniProt P32246 1-355).
T1 sequence: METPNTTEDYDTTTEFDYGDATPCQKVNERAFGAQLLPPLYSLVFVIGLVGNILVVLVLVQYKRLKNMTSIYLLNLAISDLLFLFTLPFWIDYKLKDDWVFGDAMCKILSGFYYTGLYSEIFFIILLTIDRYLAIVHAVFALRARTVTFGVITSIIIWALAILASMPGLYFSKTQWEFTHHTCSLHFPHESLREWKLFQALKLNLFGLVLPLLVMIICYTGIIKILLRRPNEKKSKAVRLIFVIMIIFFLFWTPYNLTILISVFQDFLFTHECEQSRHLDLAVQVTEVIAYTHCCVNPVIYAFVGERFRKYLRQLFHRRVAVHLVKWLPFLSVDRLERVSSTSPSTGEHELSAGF

Sequence of MCP-1RB (monocyte chemoattractant protein-1 receptor B) (human) (P41597 other isoform, or with tags, fused parts or gaps): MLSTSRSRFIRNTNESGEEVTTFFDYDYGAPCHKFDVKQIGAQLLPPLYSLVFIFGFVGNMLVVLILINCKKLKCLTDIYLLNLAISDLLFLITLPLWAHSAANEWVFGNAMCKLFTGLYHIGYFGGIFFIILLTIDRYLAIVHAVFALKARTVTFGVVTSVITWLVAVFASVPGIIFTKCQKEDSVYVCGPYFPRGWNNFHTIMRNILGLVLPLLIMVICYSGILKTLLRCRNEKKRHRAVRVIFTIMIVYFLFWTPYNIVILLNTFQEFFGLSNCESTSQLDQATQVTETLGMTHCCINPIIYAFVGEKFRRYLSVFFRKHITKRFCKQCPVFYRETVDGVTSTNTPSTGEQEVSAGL

As for “Gro-α (from UniProt P09341 35-107) (ligand)”, the IC50, Inhibition of Adenylyl Cyclase in assay [1] and in assay [2] was greater than 1000 nM in each case.
“IL-8 (interleukin-8) (from UniProt P10145 28-99) (ligand)” returned an IC50, Inhibition of Adenylyl Cyclase in assay [1] greater than 1000 nM.

B1: RANTES (ligand, UniProt P13501 24-91, looked up)
chain: SPYSSDTTPCCFAYIARPLPRAHIKEYFYTSGKCSNPAVVFVTRKNRQVCANPEKKWVREYINSLEMS
With B1, the IC50, Inhibition of Adenylyl Cyclase in assay [1] is greater than 1000 nM. In the assay with MIP-1α/RANTES receptor, the “IC50, Inhibition of Adenylyl Cyclase” value was found to be 0.14 nM and the “Selectivity (against MCP-1RB), inhibition of adenylyl cyclase” value is greater than 7000 fold.

B2: MIP-1β (ligand, UniProt P13236 24-92, looked up)
chain: APMGSDPPTACCFSYTARKLPRNFVVDYYETSSLCSQPAVVFQTKRSKQVCADPSESWVQEYVYDLELN
As for B2, the IC50, Inhibition of Adenylyl Cyclase in assay [1] was greater than 1000 nM; in the assay with MIP-1α/RANTES receptor, 10 nM. For the same molecule, the “Selectivity (against MCP-1RB), inhibition of adenylyl cyclase” value with MIP-1α/RANTES receptor was greater than 100 fold.

B3: MIP-1α (ligand, UniProt P10147 27-92, looked up)
chain: ADTPTACCFSYTSRQIPQNFIADYFETSSQCSKPGVIFLTKRSRQVCADPSEEWVQKYVSDLELSA
For B3, the IC50, Inhibition of Adenylyl Cyclase in assay [1] was greater than 1000 nM. Also, in the assay with MIP-1α/RANTES receptor, the “IC50, Inhibition of Adenylyl Cyclase” value came out at 0.11 nM and the “Selectivity (against MCP-1RB), inhibition of adenylyl cyclase” value is greater than 9000 fold.

Values taken from patent US6730301.
